Seven sequences from the supplement of paper PMC11246515 can be followed below.

± gives the standard deviation of the averaged measurements. A value given as a limit tells only on which side of the number the result lay.

The nature of this data set: total protein half-life in vivo (active degradation + dilution); higher = more stable protein.
[1] abbreviates: E. coli NCM3722 delta-clpP delta-lon delta-hslV, growth: N-lim chemostat, doubling time 6 h.
Setting [2] is: E. coli NCM3722 delta-clpP, growth: N-lim chemostat, doubling time 6 h.
Where [3] appears, read: E. coli NCM3722 delta-hslV, growth: N-lim chemostat, doubling time 6 h.
Setting [4] is: E. coli NCM3722 delta-lon, growth: N-lim chemostat, doubling time 6 h.
Setting [5] is: E. coli NCM3722 delta-smpB, growth: N-lim chemostat, doubling time 6 h.
The mark [6] stands for this setting: wild type E. coli NCM3722, growth: C-lim chemostat, doubling time 3 h.
Where [7] appears, read: wild type E. coli NCM3722, growth: C-lim chemostat, doubling time 6 h.
The mark [8] stands for this setting: wild type E. coli NCM3722, growth: C-lim chemostat, doubling time 12 h.
Setting [9] is: wild type E. coli NCM3722, growth: N-lim chemostat, doubling time 6 h.
Setting [10] is: wild type E. coli NCM3722, growth: N-lim chemostat, doubling time 12 h.
[11] abbreviates: wild type E. coli NCM3722, growth: P-lim chemostat, doubling time 6 h.
The mark [12] stands for this setting: wild type E. coli NCM3722, growth: P-lim chemostat, doubling time 12 h.

For “MSEIVVSKFGGTSVADFDAMNRSADIVLSDANVRLVVLSASAGITNLLVALAEGLEPGERFEKLDAIRNIQFAILERLRYPNVIREEIERLLENITVLAEAAALATSPALTDELVSHGELMSTLLFVEILRERDVQAQWFDVRKVMRTNDRFGRAEPDIAALAELAALQLLPRLNEGLVITQGFIGSENKGRTTTLGRGGSDYTAALLAEALHASRVDIWTDVPGIYTTDPRVVSAAKRIDEIAFAEAAEMATFGAKVLHPATLLPAVRSDIPVFVGSSKDPRAGGTLVCNKTENPPLFRALALRRNQTLLTLHSLNMLHSRGFLAEVFGILARHNISVDLITTSEVSVALTLDTTGSTSTGDTLLTQSLLMELSALCRVEVEEGLALVALIGNDLSKACGVGKEVFGVLEPFNIRMICYGASSHNLCFLVPGEDAEQVVQKLHSNLFE”, the “total protein half-life in vivo” value runs as follows: under setting [1], 4.06 ± 0.69 h; under setting [2], 2.98 ± 0.29 h; under setting [3], 2.67 ± 0.073 h; under setting [4], 3.15 ± 0.3 h; under setting [5], 2.54 ± 0.31 h; under setting [6], 3.142 ± 0.0098 h. Besides, the “total protein half-life in vivo” value reads like this: under setting [7], 4.67 ± 0.34 h; under setting [8], 8.44 ± 2.4 h; under setting [9], 2.9 ± 0.23 h; under setting [10], 4.25 ± 0.55 h; under setting [11], 5.46 ± 0.4 h; under setting [12], 10.1 ± 1.1 h.

As to “MSFSVDVLANIAIELQRGIGHQDRFQRLITTLRQVLECDASALLRYDSRQFIPLAIDGLAKDVLGRRFALEGHPRLEAIARAGDVVRFPADSELPDPYDGLIPGQESLKVHACVGLPLFAGQNLIGALTLDGMQPDQFDVFSDEELRLIAALAAGALSNALLIEQLESQNMLPGDATPFEAVKQTQMIGLSPGMTQLKKEIEIVAASDLNVLISGETGTGKELVAKAIHEASPRAVNPLVYLNCAALPESVAESELFGHVKGAFTGAISNRSGKFEMADNGTLFLDEIGELSLALQAKLLRVLQYGDIQRVGDDRCLRVDVRVLAATNRDLREEVLAGRFRADLFHRLSVFPLSVPPLRERGDDVILLAGYFCEQCRLRQGLSRVVLSAGARNLLQHYSFPGNVRELEHAIHRAVVLARATRSGDEVILEAQHFAFPEVTLPTPEVAAVPVVKQNLREATEAFQRETIRQALAQNHHNWAACARMLETDVANLHRLAKRLGLKD”, the “total protein half-life in vivo” value came out at 4.32 h under setting [4]; 3.19 ± 0.46 h under setting [5]; 2.33 h under setting [6]; 7.42 ± 0.3 h under setting [8]; 3.76 h under setting [9]; 5.2 ± 0.5 h under setting [10]. Moreover, under setting [12], the “total protein half-life in vivo” value was found to be 7.35 ± 0.38 h.

For “MAQVAIITASDSGIGKECALLLAQQGFDIGITWHSDEEGAKDTAREVVSHGVRAEIVQLDLGNLPEGALALEKLIQRLGRIDVLVNNAGAMTKAPFLDMAFDEWRKIFTVDVDGAFLCSQIAARQMVKQGQGGRIINITSVHEHTPLPDASAYTAAKHALGGLTKAMALELVRHKILVNAVAPGAIATPMNGMDDSDVKPDAEPSIPLRRFGATHEIASLVVWLCSEGANYTTGQSLIVDGGFMLANPQFNPE”, the “total protein half-life in vivo” value runs as follows: under setting [1], 5.0837 ± 0.0019 h; under setting [2], 4.64 ± 0.2 h; under setting [3], 5.14 ± 0.54 h; under setting [4], 4.36 ± 0.089 h; under setting [5], 4.64 ± 0.24 h; under setting [6], 2.863 ± 0.007 h. Further, the “total protein half-life in vivo” value was 5.19 ± 0.38 h under setting [7]; 11 ± 0.19 h under setting [8]; 4.81 ± 0.42 h under setting [9]; 7.86 ± 0.13 h under setting [10]; 5.6 ± 0.22 h under setting [11]; 10.9 ± 0.34 h under setting [12].

Consider “MRIGQYQLRNRLIAAPMAGITDRPFRTLCYEMGAGLTVSEMMSSNPQVWESDKSRLRMVHIDEPGIRTVQIAGSDPKEMADAARINVESGAQIIDINMGCPAKKVNRKLAGSALLQYPDVVKSILTEVVNAVDVPVTLKIRTGWAPEHRNCEEIAQLAEDCGIQALTIHGRTRACLFNGEAEYDSIRAVKQKVSIPVIANGDITDPLKARAVLDYTGADALMIGRAAQGRPWIFREIQHYLDTGELLPPLPLAEVKRLLCAHVRELHDFYGPAKGYRIARKHVSWYLQEHAPNDQFRRTFNAIEDASEQLEALEAYFENFA [P0ABT5]”, for which the “total protein half-life in vivo” value reads like this: under setting [1], 4.65 ± 0.67 h; under setting [2], 3.28 h; under setting [5], 2.21 ± 0.077 h; under setting [6], 2.88 ± 0.28 h; under setting [7], 3.67 ± 0.67 h; under setting [8], 6.75 ± 0.78 h. Moreover, the “total protein half-life in vivo” value under setting [9] was found to be 2.23 h, the “total protein half-life in vivo” value under setting [10] came to 3.47 h, the “total protein half-life in vivo” value under setting [11] was found to be 5.13 ± 0.28 h and the “total protein half-life in vivo” value under setting [12] was determined as 8.25 ± 0.84 h.

As to “MSLDINQIALHQLIKRDEQNLELVLRDSLLEPTETVVEMVAELHRVYSAKNKAYGLFSEESELAQTLRLQRQGEEDFLAFSRAATGRLRDELAKYPFADGGFVLFCHYRYLAVEYLLVAVLSNLSSMRVNENLDINPTHYLDINHADIVARIDLTEWETNPESTRYLTFLKGRVGRKVADFFMDFLGASEGLNAKAQNRGLLQAVDDFTAEAQLDKAERQNVRQQVYSYCNEQLQAGEEIELKSLSKELAGVSEVSFTEFAAEKGYELEESFPADRSTLRQLTKFAGSGGGLTINFDAMLLGERIFWDPATDTLTIKGTPPNLRDQLQRRTSGGN”, the “total protein half-life in vivo” value is, setting by setting: under setting [1], 6.4 ± 0.28 h; under setting [2], 6.91 ± 0.46 h; under setting [3], 5.81 ± 0.19 h; under setting [4], 5.78 ± 0.17 h; under setting [5], 5.911 ± 0.055 h; under setting [6], 3.22 ± 0.17 h. Further, the “total protein half-life in vivo” value is, setting by setting: under setting [7], 6.07 ± 0.17 h; under setting [8], 10.4 ± 2.2 h; under setting [9], 6.08 ± 0.28 h; under setting [10], 12 ± 2.2 h; under setting [11], 6.08 ± 0.094 h; under setting [12], 12.7 ± 0.4 h.

For “MKKTQRKEIENVTNITGVRQIELWRRDDLQHPRLDEVAEEVPVALVYNGISHVVMMASPKDLEYFALGFSLSEGIIESPRDIFGMDVVPSCNGLEVQIELSSRRFMGLKERRRALAGRTGCGVCGVEQLNDIGKPVQPLPFTQTFDLNKLDDALRHLNDFQPVGQLTGCTHAAAWMLPSGELVGGHEDVGRHVALDKLLGRRSQEGESWQQGAVLVSSRASYEMVQKSAMCGVEILFAVSAATTLAVEVAERCNLTLVGFCKPGRATVYTHPQRLSN”, the “total protein half-life in vivo” value under setting [1] was found to be 5.53 ± 0.71 h; the “total protein half-life in vivo” value under setting [2] is greater than 8 h; the “total protein half-life in vivo” value under setting [3] was found to be 3.83 ± 0.57 h; the “total protein half-life in vivo” value under setting [4] was 4.1 ± 0.3 h; the “total protein half-life in vivo” value under setting [5] was found to be 3.793 ± 0.019 h; the “total protein half-life in vivo” value under setting [6] amounted to 2.89 ± 0.25 h. The “total protein half-life in vivo” value under setting [7] was 4.79 ± 0.16 h; the “total protein half-life in vivo” value under setting [8] turned out to be 9.01 ± 0.31 h; the “total protein half-life in vivo” value under setting [9] is 3.88 ± 0.38 h; the “total protein half-life in vivo” value under setting [10] was 6.61 ± 0.14 h; the “total protein half-life in vivo” value under setting [11] is 4.99 ± 0.11 h; the “total protein half-life in vivo” value under setting [12] came out at 10.5 ± 0.64 h.

For “MPHSLFSTDTDLTAENLLRLPAEFGCPVWVYDAQIIRRQIAALKQFDVVRFAQKACSNIHILRLMREQGVKVDSVSLGEIERALAAGYNPQTHPDDIVFTADVIDQATLERVSELQIPVNAGSVDMLDQLGQVSPGHRVWLRVNPGFGHGHSQKTNTGGENSKHGIWYTDLPAALDVIQRHHLQLVGIHMHIGSGVDYAHLEQVCGAMVRQVIEFGQDLQAISAGGGLSVPYQQGEEAVDTEHYYGLWNAAREQIARHLGHPVKLEIEPGRFLVAQSGVLITQVRSVKQMGSRHFVLVDAGFNDLMRPAMYGSYHHISALAADGRSLEHAPTVETVVAGPLCESGDVFTQQEGGNVETRALPEVKAGDYLVLHDTGAYGASMSSNYNSRPLLPEVLFDNGQARLIRRRQTIEELLALELL”, the “total protein half-life in vivo” value turned out to be 3.43 ± 0.39 h under setting [1]; 2.81 ± 0.36 h under setting [2]; 2.41 ± 0.37 h under setting [3]; 2.06 ± 0.69 h under setting [5]; 2.91 ± 0.14 h under setting [6]; 4.76 ± 0.92 h under setting [7]. In addition, the “total protein half-life in vivo” value worked out at 8.09 ± 0.86 h under setting [8]; 2.53 ± 0.12 h under setting [9]; 3.6 ± 0.33 h under setting [10]; 5.29 ± 0.3 h under setting [11]; 9.66 ± 0.16 h under setting [12].
